Data from the Human Domainome abundance scans (Beltran et al. 2025).

B1: Tesmin, residues 368 to 403; numbered along this chain, Q9Y4I5 (parent)
chain: KGCNCRRSGCLKNYCECYEAQIMCSSICKCIGCKNY

Variants of: B1
Test: abundance fitness (aPCA) (normalised: wild type 0, dead -1); higher = more abundant; growth selection in yeast, the domain comes from the species named
Conditions: Homo sapiens

Abundance fitness: each site, then its substitutions
R6: V 0.12, C 0.036, K 0.146, W 0.012, G 0.151, A 0.33, E 0.214, Q 0.338, L 0.204, S 0.303, T 0.239, F -0.169, N -0.361, D 0.156
G9: E 0.006, N -0.248, A -0.339, M -0.269, D 0.111, S -0.795, T -0.22, L -0.629, Q -0.342, W -1.51, V -0.334, P -0.213
C10: Y -0.439, M -0.501, S -0.213, V -0.322, E 0.004, T -0.245, D -0.105, Q -0.208, I -1.37, R -0.539, A -0.141, W -0.418, L -0.414, P -0.633, N -0.405, K -0.323
R7: I -0.336, C -0.401, E 0.398, P -0.103, Q 0.282, G 0.268, Y 0.035, L -0.021, A 0.248, M 0.214, T 0.047, W -0.255, K 0.039
L11: I -0.369, A 0.075, N -0.243, M 0.038, Y -0.656, P -0.116, G -0.064, E 0.05, D -0.428, C -0.567, W -0.388, S -0.134, Q 0.087, T -0.079, R -0.344, K -0.025, H 0.297
S8: A -0.144, N -0.384, H -0.461, E -0.08, C -0.581, I 0.19, L -0.106, R -0.169, Q -0.063, F -0.399, K -0.107, M -0.343, W -0.527, G 0.034, D -0.066, V -0.187, Y -0.514
K1: E -0.136, L -0.211, D -0.995, S -0.401, C -0.775, G -0.573, V -0.825
G2: K -0.565, V -0.209, R -0.447, Q -0.17, W -0.674, A -0.133, P 0.07, S -0.194, M -0.189, E 0.017, C -0.448, T -0.439, L -0.465
K12: L -0.316, F -0.01, C -0.622, I -0.405, Q -0.076, N -0.46, E 0.031, P -0.077, H -0.217, A -0.05, G -0.079, M -0.323
C5: Q -0.346, A -0.414, V -1.24, W -0.523, M -0.286, D -0.794, S -0.342, T -0.431, G -0.65, H 0.066, P -0.296, L -0.455, E -0.176, I -0.936, N -0.478
N4: G -0.103, V -1.13, C -0.183, P -0.033, M -0.011, Y -0.226, R -0.16, L -0.207, A -0.162, D 0.22, K -0.314, S -0.103, I -0.31, E -0.056, T -0.186, H -0.199
C3: I -0.51, Q -0.462, W -0.624, K -0.115, G -0.236, F -0.567, L -0.677, H -0.363, Y -0.056, T -0.322, S -0.702, A -0.33, P -0.577, D -0.262, M -0.194
